# Publication PMC7608592, “Allomorphy as a mechanism of post-translational control of enzyme activity” (Nature Communications, 2020)
# Key:
# [1] = biological target: T1, β-phosphoglucomutase (βPGM) (Lactococcus lactis, UniProt P71447); test: real-time NMR (A:F16BP complex observed); phosphorylating agent in coupled assay; assay type: binding
# T1 construct: gene pgmB
# [2] = biological target: T2, β-phosphoglucomutase (βPGM) (Lactococcus lactis, UniProt P71447, P146A); test: NMR: phosphorylation of the purified enzyme (B^P formed) and turnover of F16BP; assay type: biochemical
# T2 construct: gene pgmB
# [3] = biological target: T1, β-phosphoglucomutase (βPGM); test: X-ray crystal structure at […] Å; NMR titration (1H15N-TROSY); assay type: binding
# [4] = tested on: O=P(O)(O)OC[C@H]1O[C@@H](OP(=O)(O)O)[C@H](O)[C@@H](O)[C@@H]1O; test: purified protein; conditions: Mg2+ active site
# [5] = tested on: O=P(O)(O)O[C@@H]1O[C@H](CO)[C@@H](O)[C@H](O)[C@H]1O; test: purified protein; conditions: Mg2+ active site
Molecule,real-time NMR (A:F16BP complex observed); phosphorylating agent in coupled assay [1],NMR: phosphorylation of the purified enzyme (B^P formed) and turnover of F16BP [2],X-ray crystal structure at 2.1 Å; NMR titration (1H15N-TROSY) [3],Km [4] [µM],Km [5] [µM]
"O=P(O)(O)OC[C@H]1OC(O)(COP(=O)(O)O)[C@@H](O)[C@@H]1O (mixture of isomers) [F16BP, fructose 1,6-bisphosphate]",A minor population of the A:F16BP complex is also present,"On addition of F16BP to βPGMP146A, the two dominant species observed are conformer B and B^P",,,
O=C(O)CC(O)(CC(=O)O)C(=O)O [citrate],,,"Citrate is coordinated in the active site by residues T16, H20, V47–R49 and A115–K117 and mimics substrate binding",,
β-phosphoglucomutase (βPGM) (Lactococcus lactis subsp. lactis Il1403),,,,8.5 ± 0.3,91 ± 4
β-phosphoglucomutase (βPGM) (Lactococcus lactis subsp. lactis Il1403; P146A),,,,175 ± 3,157 ± 3
